Experimental data: paper PMC12624773, “Receptor activity–modifying protein 3 enhances GLP-1-mediated insulin secretion” (The Journal of Biological Chemistry, 2025)
Entries after “also recorded” stand apart in the source; their conditions may differ. Numbered stars: 1 amine (or outer) side, 2 acyl side, 3 side chain; on linkers, the order of the positions; unused ones are H or OH. Bridge positions count the residues as written; N and C are the ends. Square brackets hold non-standard residues; d marks the D form. Peptide text beside a SMILES is read from it. X1 = CC(=O)NC(C(=O)OC(C(C)C)C(N[*:1])C(=O)[*:2])C(O)C(C)C; PhLac = O=C(O)[CH](O)Cc1ccccc1; NMeT = CN[CH](C(=O)O)[CH](C)O; NMeA = CN[CH](C)C(=O)O; NMeDha = C=C(NC)C(=O)O

Legend:
INS-1 832/3 cells [1] = assay: Glucose-stimulated insulin secretion in INS-1 832/3 cells, GLP-1R agonists; assay type: cell-based, rat; details: 10 nM GLP-1; for effect of inhibitor on GLP-1-mediated insulin secretion: vector- and RAMP3-transfected, 30 min pretreatment, normalized to 10 nM GLP-1 + 0.1% DMSO
Nluc–GLP-1R [2] = biological target: T1, Nluc–GLP-1R (Homo sapiens, UniProt P43220)
Nluc–GLP-1R [3] = biological target: T1, Nluc–GLP-1R; assay type: cell-based; set-up: signal peptide of murine serotonin 5-HT3R (sig) (N); expressed in transfected cells; host or cells: HEK293T; details: HEK293T; over the concentration range tested
Nluc–GLP-1R [4] = biological target: T1, Nluc–GLP-1R; assay type: cell-based; set-up: signal peptide of murine serotonin 5-HT3R (sig) (N); expressed in transfected cells; host or cells: HEK293T; details: HEK293T, absence of RAMP3
INS-1 832/3 cells [5] = details: 10 nM GIP, […] glucose
GIPR = details: Min6 B1, 8-min stimulation, n = 4
Min6 B1 cells = assay: Insulin secretion in siRNA-treated Min6 B1 cells; details: 10 nM and 1 nM agonist, n = 4
[6] = ref [3]; cited from earlier work
From the text: The incretin effect, whereby oral glucose elevates plasma insulin levels to a greater degree than intravenous administration, was first observed in 1964 ([1]). This is mediated by incretin hormones, the best known of which are GLP-1 and the glucose-dependent insulinotropic polypeptide (GIP). […] However, newer m ...

GCGR with RAMP2 = details: GCGR coexpressed with RAMP2; ref [13]; cited from earlier work
GLP-1R–Nluc (human) = GLP-1R–Nluc (human) (UniProt P43220)
CLR–RAMP1 = details: ref [43]; cited from earlier work
From the text: As RAMP3 expression varies between tissues, it is possible that by directly targeting this complex, tissue-specific receptor activation could be facilitated. […] Agonists that have reduced affinity for the RAMP3 complex over the receptor alone ...

T1 sequence (P43220 24-463): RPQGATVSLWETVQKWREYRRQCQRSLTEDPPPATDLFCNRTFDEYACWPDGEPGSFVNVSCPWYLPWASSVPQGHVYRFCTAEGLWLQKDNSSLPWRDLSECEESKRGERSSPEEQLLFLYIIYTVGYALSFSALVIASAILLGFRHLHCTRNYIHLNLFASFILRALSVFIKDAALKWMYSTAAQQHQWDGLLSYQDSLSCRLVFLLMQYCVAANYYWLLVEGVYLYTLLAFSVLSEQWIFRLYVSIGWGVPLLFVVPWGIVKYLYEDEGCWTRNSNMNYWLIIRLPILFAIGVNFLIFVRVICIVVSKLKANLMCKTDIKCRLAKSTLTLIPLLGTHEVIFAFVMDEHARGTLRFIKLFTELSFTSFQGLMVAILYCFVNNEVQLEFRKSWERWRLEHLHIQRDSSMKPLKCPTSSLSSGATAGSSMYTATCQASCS
Sequence of GLP-1R–Nluc (human) (P43220 24-463): as above

Nc1ncnc2c1nc(Br)n2C1OC2COP(O)(=S)OC2C1O (stereo not shown) [Rp-8-Br-cAMPs]
effect of inhibitor on GLP-1-mediated insulin secretion (INS-1 832/3 cells [1]): no effect; also recorded: unaffected

exendin-4 (from UniProt P26349 48-87) (peptide)
Ca^2+ mobilization, HEK293T, + 2xFLAG-RAMP3; pEC50 (Nluc–GLP-1R [2]): 8.6 pEC50 | Ca^2+ mobilization, HEK293T, receptor alone; pEC50 (Nluc–GLP-1R [2]): 6.9 pEC50 | cAMP accumulation, 8-min stimulation, HEK293T, + 2xFLAG-RAMP3; pEC50 (Nluc–GLP-1R [2]): 11.3 pEC50 | cAMP accumulation, 8-min stimulation, HEK293T, + FLAG-RAMP3; pEC50 (Nluc–GLP-1R [2]): 11.6 pEC50 | cAMP accumulation, 8-min stimulation, HEK293T, receptor alone; pEC50 (Nluc–GLP-1R [2]): 11.7 pEC50 | cAMP accumulation, 30-min stimulation, HEK293T, + 2xFLAG-RAMP3; pEC50 (Nluc–GLP-1R [2]): 12.4 pEC50 | cAMP accumulation, 30-min stimulation, HEK293T, + FLAG-RAMP3; pEC50 (Nluc–GLP-1R [2]): 12.8 pEC50 | cAMP accumulation, 30-min stimulation, HEK293T, receptor alone; pEC50 (Nluc–GLP-1R [2]): 13.1 pEC50

GLP-1 (9–36)
cAMP production (Nluc–GLP-1R [3]): did not elicit sufficient cAMP production over the concentration range tested | (Ca^2+)i mobilization (Nluc–GLP-1R [4]): unable to elicit any (Ca^2+)i mobilization

glucose-dependent insulinotropic polypeptide [GIP]
effect of RAMP1 transfection on insulin secretion (INS-1 832/3 cells [5]): increased insulin secretion | effect of RAMP3 transfection on insulin secretion (INS-1 832/3 cells [5]): increased insulin secretion | effect of RAMP3 siRNA on cAMP accumulation (GIPR): no effect | effect of RAMP3 knockdown on insulin secretion (Min6 B1 cells): unaffected

CC(C)(C)c1cc(C(=O)/C(C#N)=N/Nc2cccc(Cl)c2)no1 [ESI-09]
effect of inhibitor on GLP-1-mediated insulin secretion (INS-1 832/3 cells [1]): significantly decreased; also recorded: significantly reduced insulin secretion

Semaglutide
protection against neurodegeneration and neuroinflammation [6]: protect against neurodegeneration and neuroinflammation

glucagon: agonist of GCGR (cited)
effect of RAMP2 on Gαs coupling/response at GCGR (GCGR with RAMP2): increasing Gαs coupling

liraglutide (peptide)
Ca^2+ mobilization, HEK293T, + 2xFLAG-RAMP3; pEC50 (Nluc–GLP-1R [2]): 7.5 pEC50 | Ca^2+ mobilization, HEK293T, + FLAG-RAMP3; pEC50 (Nluc–GLP-1R [2]): 7.4 pEC50 | Ca^2+ mobilization, HEK293T, receptor alone; pEC50 (Nluc–GLP-1R [2]): 7.5 pEC50 | cAMP accumulation, 8-min stimulation, HEK293T, + 2xFLAG-RAMP3; pEC50 (Nluc–GLP-1R [2]): 9.9 pEC50 | cAMP accumulation, 8-min stimulation, HEK293T, + FLAG-RAMP3; pEC50 (Nluc–GLP-1R [2]): 10.3 pEC50 | cAMP accumulation, 30-min stimulation, HEK293T, + 2xFLAG-RAMP3; pEC50 (Nluc–GLP-1R [2]): 10.1 pEC50 | cAMP accumulation, 30-min stimulation, HEK293T, + FLAG-RAMP3; pEC50 (Nluc–GLP-1R [2]): 10.3 pEC50 | cAMP accumulation, 30-min stimulation, HEK293T, receptor alone; pEC50 (Nluc–GLP-1R [2]): 10.4 pEC50 | internalization (loss of BRET with RIT-Venus), HEK293T, + 2xFLAG-RAMP3; pEC50 (GLP-1R–Nluc (human)): 7.6 pEC50 | internalization (loss of BRET with RIT-Venus), HEK293T, + FLAG-RAMP3; pEC50 (GLP-1R–Nluc (human)): 8.2 pEC50 | internalization (loss of BRET with RIT-Venus), HEK293T, receptor alone; pEC50 (GLP-1R–Nluc (human)): 8.5 pEC50 | β-arrestin1–YFP recruitment (BRET), HEK293T, + 2xFLAG-RAMP3; pEC50 (GLP-1R–Nluc (human)): 7.5 pEC50 | β-arrestin1–YFP recruitment (BRET), HEK293T, + FLAG-RAMP3; pEC50 (GLP-1R–Nluc (human)): 7.1 pEC50 | β-arrestin1–YFP recruitment (BRET), HEK293T, receptor alone; pEC50 (GLP-1R–Nluc (human)): 7 pEC50 | β-arrestin2–YFP recruitment (BRET), HEK293T, + 2xFLAG-RAMP3; pEC50 (GLP-1R–Nluc (human)): 7.5 pEC50 | β-arrestin2–YFP recruitment (BRET), HEK293T, + FLAG-RAMP3; pEC50 (GLP-1R–Nluc (human)): 7.1 pEC50 | β-arrestin2–YFP recruitment (BRET), HEK293T, receptor alone; pEC50 (GLP-1R–Nluc (human)): 7.3 pEC50

NCCCC[C@H](NC(=O)[C@@H](Cc1cc(Br)c(O)c(Br)c1)NC(=O)N1CCC(N2Cc3ccccc3NC2=O)CC1)C(=O)N1CCN(c2ccncc2)CC1 [BIBN 4096 BS]
disruption of receptor–RAMP interaction (CLR–RAMP1): disrupt the interaction

C=C1C(=O)NC(C)C(=O)N(C)C(C)C(=O)NC(C(OC(=O)C(NC(C)=O)C(O)C(C)C)C(C)C)C(=O)N(C)C(C(C)OC)C(=O)OC(C)C(NC(C)=O)C(=O)OC(Cc2ccccc2)C(=O)N1C (stereo not shown) [YM-254890] (Ac-T[PhLac][NMeDha]A[NMeA][X1][NMeT](Me); ester 1-C; configuration not given here)
effect of inhibitor on GLP-1-mediated insulin secretion, RAMP3 vs vector (INS-1 832/3 cells [1]; YM-254890 100 nM, PTX 0.2 ng/μl): decreased insulin secretion significantly only when RAMP3 was overexpressed; also recorded: only reduced insulin secretion in cells overexpressing RAMP3
